Results: US20130344073A1 (OMEROS, published 2013)

Target: T1, human MASP-3 (human)
T1 construct: For selection and FACS it was full-length or a fragment, fused to an Fc domain or labelled with Dylight; also called MASP-3 antigen; rMASP-3
T1 chain: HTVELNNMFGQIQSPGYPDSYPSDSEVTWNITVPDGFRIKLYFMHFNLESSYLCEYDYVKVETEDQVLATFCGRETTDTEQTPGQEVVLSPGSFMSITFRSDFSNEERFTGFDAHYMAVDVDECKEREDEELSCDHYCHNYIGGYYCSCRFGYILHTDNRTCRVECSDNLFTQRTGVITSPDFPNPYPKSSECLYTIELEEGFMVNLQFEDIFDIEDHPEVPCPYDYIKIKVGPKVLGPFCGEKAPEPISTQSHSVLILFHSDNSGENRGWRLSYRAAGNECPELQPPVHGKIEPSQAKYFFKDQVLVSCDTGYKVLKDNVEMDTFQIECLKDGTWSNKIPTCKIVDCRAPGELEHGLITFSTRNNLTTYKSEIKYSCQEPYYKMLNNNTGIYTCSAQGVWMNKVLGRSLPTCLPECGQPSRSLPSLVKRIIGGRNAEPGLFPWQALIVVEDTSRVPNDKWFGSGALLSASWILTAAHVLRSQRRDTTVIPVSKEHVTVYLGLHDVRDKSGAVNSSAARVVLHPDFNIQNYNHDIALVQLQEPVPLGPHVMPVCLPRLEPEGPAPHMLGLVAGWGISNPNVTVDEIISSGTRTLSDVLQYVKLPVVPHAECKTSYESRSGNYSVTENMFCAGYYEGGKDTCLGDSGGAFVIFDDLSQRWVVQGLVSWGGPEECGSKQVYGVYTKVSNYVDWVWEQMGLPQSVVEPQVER
Experiment: saturation binding; DTLacO cells expressing the antibody stained with various concentrations of fluorescent-labeled soluble antigen
Source text: Recombinant antibodies were generated by cloning PCR-amplified V regions into a vector that supported expression of human IgG1 in 293F cells (Yabuki et al., PLoS ONE, 7(4):e36032 (2012)).

B1: MASP-3 specific clone M3J5 (antibody, V domains shown)
VH: AVTLDESGGGLQTPGGGLSLVCKASGFTFSSYAMGWMRQAPGKGLEYVAGIRSDGSFTLYATAVKGRATISRDNGQSTVRLQLNNLRAEDTATYFCTRSGNVGDIDAWGHGTEVIVSS
VL: ALTQPASVSANPGETVKITCSGGYSGYAGSYYYGWYQQKAPGSAPVTLIYYNNKRPSDIPSRFSGSLSGSTNTLTITGVRADDEAVYFCGSADNSGAAFGAGTTLTVL
notes: Chicken V regions; recombinant form is chimeric with human IgG1 and lambda constant regions; also called Clone 5; DTLacO clone M3J5
For B1, the Kd was about 31 nM.
